One may read the stoichiometry N as the number of molecules, sites or subunits per partner or assembly.

Data on one substance can be found in article PMC6332120.

The target of the experiment is thioredoxin glutathione reductase (TGR) from Mesocestoides vogae (Mesocestoides vogae (endogenous in tetrathyridium larvae)). Put plainly: SEC; 25%-50% ammonium sulfate fraction of the larval extract, dialysed against PBS, on HiLoad 16/600 Superdex 200 pg; TR and GR activities traced in the fractions. For orientation: SEC sorts molecules by how far they enter the pores of the column.

The substance “thioredoxin glutathione reductase (TGR) from Mesocestoides vogae (enzyme)” displayed a stoichiometry N of 2.
